Data: PMC4595762, “Structural basis of Ornithine Decarboxylase inactivation and accelerated degradation by polyamine sensor Antizyme1” (Scientific Reports, 2015)

Target: T1, Ornithine decarboxylase (human, UniProt P11926 1-461)
T1 construct: Ornithine decarboxylase, Homo sapiens, full length; Cloned into pGEX-6p-1; The complex was purified and crystallised with the co-factor PLP (1 mM); One ODC monomer stands in the complex with cAZ1; also called ODC; human ODC; source: E. coli BL21 (DE3), purified (glutathione Sepharose 4B, PreScission cleavage, Superdex-200)
T1 sequence (looked up): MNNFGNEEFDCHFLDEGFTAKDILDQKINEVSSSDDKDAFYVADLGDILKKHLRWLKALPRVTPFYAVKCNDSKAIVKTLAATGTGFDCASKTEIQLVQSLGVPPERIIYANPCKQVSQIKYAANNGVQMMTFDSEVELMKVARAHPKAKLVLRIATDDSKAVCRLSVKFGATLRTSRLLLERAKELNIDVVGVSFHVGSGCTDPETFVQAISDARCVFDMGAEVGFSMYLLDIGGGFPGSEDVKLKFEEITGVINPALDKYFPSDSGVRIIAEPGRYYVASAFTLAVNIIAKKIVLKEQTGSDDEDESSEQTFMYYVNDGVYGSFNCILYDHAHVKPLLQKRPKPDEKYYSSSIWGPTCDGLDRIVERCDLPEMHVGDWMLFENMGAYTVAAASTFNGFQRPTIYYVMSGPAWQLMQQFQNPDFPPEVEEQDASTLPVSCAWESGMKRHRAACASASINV
Assay: crystal structure; purified ODC and cAZ1 mixed on ice for 1 hour with cAZ1 in excess; complex purified on Superdex-200 in 20 mM Tris pH 8.5, 150 mM NaCl, 2 mM DTT, 1 mM PLP; hanging-drop crystals at 15 °C; 3.2 Å
Settings: both partners purified

B1: N-terminally truncated Antizyme1 (residues 69-228) (domain or fragment)
chain: not shown
notes: Antizyme1 (AZ1), Homo sapiens, N-terminally truncated, residues 69-228; Cloned into pGEX-6p-1; also called cAZ1; AZ1; source: E. coli BL21 (DE3), purified (glutathione Sepharose 4B, PreScission cleavage, Superdex-200)
- binding result: binds
